Here are results for one molecule from patent US20220242973A1 (Molecular Partners, published 2022).

One assay concerns the target T1, Recombinant mouse FAP (mouse, UniProt P97321 26-761).
T1 construct: Bought soluble recombinant protein; also called mFAP
T1 sequence (looked up): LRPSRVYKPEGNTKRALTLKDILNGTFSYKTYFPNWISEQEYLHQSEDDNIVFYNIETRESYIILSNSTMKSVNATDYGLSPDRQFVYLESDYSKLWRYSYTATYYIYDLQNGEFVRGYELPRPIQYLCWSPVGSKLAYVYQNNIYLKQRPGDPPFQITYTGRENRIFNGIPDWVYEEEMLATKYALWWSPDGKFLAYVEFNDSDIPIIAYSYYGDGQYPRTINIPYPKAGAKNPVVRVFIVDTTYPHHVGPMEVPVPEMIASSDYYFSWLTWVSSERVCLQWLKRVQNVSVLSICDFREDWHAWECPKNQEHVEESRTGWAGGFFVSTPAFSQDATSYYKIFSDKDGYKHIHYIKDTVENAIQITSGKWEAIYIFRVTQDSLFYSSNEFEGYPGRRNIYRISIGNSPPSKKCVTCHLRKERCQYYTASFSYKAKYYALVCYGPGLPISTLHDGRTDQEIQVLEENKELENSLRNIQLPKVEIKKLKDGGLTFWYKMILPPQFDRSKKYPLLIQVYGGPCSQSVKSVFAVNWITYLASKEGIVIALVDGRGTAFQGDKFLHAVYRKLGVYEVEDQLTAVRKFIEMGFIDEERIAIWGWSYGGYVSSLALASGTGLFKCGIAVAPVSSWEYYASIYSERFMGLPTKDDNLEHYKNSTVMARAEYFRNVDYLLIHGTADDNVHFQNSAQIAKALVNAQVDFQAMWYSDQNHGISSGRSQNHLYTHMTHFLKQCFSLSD
As to the kind of experiment: SPR (ProteOn), mouse FAP immobilized on GLC chip. As for the experimental part:
Briefly, mouse FAP was diluted in 10 mM Na-acetate pH5.3 buffer and covalently immobilized on a GLC chip (BioRad) to a level of around 2000 resonance units (RU). The interaction of DARPin® protein #41 and mFAP was then measured by injecting 200 μl running buffer (PBS, pH7.4 containing 0.005% Tween20®) containing serial dilutions of DARPin® protein #41 covering a concentration range between 50 nM and 3 nM (on-rate measurement), followed by a running buffer flow for 30 minutes at a constant flow rate of 100 μl/min (off-rate measurement). The regeneration was performed using 15 μl of 10 mM Glycine pH 2 followed by 15 μl of 124 mM H₃PO₄. The signals (i.e. resonance unit (RU) values) of the interspots and a reference injection (i.e. injection of running buffer only) were subtracted from the RU traces obtained after injection of DARPin® protein #41 (double-referencing). The binding of DARPin® protein #41 to hFAP was determined as described in Example 2.
Dissociation constants (KD) were calculated from the estimated on- and off-rates using standard procedures known to the person skilled in the art and are reported in Table 7. […] The dissociation constant of DARPin® protein #41 for binding to mouse FAP was determined to be 1.3 nM.

Assay [1] has as its target T2, Human FAP expressed on the cell surface (WI38, CHO-FAP1.9, U87MG cells) (human, UniProt Q12884 1-760).
T2 construct: whole, on cells; Endogenous on WI38 and U87MG cells; from a human FAP cDNA (OriGene) in CHO-FAP1.9 cells; also called hFAP; FAP+ cells
T2 sequence (looked up): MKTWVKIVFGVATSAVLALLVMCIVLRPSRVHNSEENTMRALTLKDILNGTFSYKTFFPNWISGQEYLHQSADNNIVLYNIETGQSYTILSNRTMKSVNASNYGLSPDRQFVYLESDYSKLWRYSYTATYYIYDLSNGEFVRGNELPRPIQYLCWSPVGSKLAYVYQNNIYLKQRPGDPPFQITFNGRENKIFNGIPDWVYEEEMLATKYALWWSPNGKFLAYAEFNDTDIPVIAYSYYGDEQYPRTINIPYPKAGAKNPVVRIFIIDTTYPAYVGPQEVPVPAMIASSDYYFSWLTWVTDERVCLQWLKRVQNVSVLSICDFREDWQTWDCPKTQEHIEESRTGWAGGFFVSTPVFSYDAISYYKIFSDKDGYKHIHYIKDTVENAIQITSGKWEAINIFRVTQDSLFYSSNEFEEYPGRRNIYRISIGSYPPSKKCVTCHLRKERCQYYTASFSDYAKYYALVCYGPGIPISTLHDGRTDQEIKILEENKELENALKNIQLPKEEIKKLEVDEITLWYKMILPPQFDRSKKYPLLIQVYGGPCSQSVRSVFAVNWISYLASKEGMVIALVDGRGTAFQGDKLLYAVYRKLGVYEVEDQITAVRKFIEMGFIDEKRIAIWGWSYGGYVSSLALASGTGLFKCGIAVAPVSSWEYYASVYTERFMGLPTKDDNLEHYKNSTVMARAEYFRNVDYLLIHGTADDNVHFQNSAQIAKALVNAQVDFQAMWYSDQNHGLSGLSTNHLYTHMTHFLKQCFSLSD
As to the kind of experiment: FACS on WI38 cells (FAP on the cell surface), His-tag detected with Penta-His AF647 conjugate, median fluorescence intensity. As for the experimental part: In order to determine whether the fusion of a biologically active molecule to a FAP-specific ankyrin repeat domain affects the ability of the molecule to specifically recognize and bind to FAP expressed on the surface of cells, the binding of selected ankyrin repeat fusion proteins to FAP-expressing cells was tested. U87 MG cells and WI38 cells are known to express FAP on the cell surface and they were chosen as representative cells for these experiments. FAP expression on the U87 MG and WI38 cells was confirmed by FACS analysis (data not shown).
Using multi-well plates, 40,000 cells (either U87MG or WI38) were added per well in 50 μl of PBS. 50 μl of appropriate dilutions (2× dilution steps) of ankyrin repeat fusion protein (DARPin® protein #40 or DARPin® protein #41) was then added to the cells and incubated for 30 minutes on ice. After the ankyrin repeat fusion protein-binding reaction, cells were washed twice with PBS. Direct immunofluorescent detection of the His-tagged ankyrin repeat fusion proteins using Penta-His AF647 conjugate (QIAgen) and determination of live cells using LIVE/DEAD™ Fixable Green Dead Cell Stain Kit (ThermoFisher) were then performed together in one step. […] Acquisition and FACS analysis, including the determination of median fluorescence intensity (MFI), were done within 5 days after staining using an AttuneNxT instrument. […]

B1: DARPin® protein #41 (designed binder)
chain: MRGSHHHHHHGSDLGKKLLEAARAGQDDEVRELLKAGADVNAKDYFSHTPLHLAARNGHLKIVEVLLKAGADVNAKDFAGKTPLHLAANEGHLEIVEVLLKAGADVNAQDIFGKTPADIAADAGHEDIAEVLQKAAGSPTPTPTTPTPTPTTPTPTPTGSDLGEKLLVAALYGQDDEVRILLAAGADVNAKDQWGLTPLHKAALQGHLEIVEVLLKAGADVNAKDERGHTPLHWAARFGHLEIVEVLLKAGADVNAQDQKGYTPADLAALWGHEDIAEVLQKAA
notes: Fusion of a serum albumin-specific and a FAP-specific ankyrin repeat domain
What is called Kd is the equilibrium constant for the complex coming apart. The term EC50 (read off the curve) denotes the midpoint of the concentration-response curve. A higher EC50 (read off the curve) goes with weaker potency. Turning to B1, the Kd in the assay with Recombinant mouse FAP was found to be 1.3 nM. Further, in assay [1], the “EC50 (read off the curve)” value was about 2 nM.
